In US20060292657A1, “Phex substrates and methods using same” (priority 2003, published 2006):

What was measured:
Assay in all cases: Kinetic parameters for hydrolysis of internally quenched fluorogenic peptides by secPHEX
Type in all cases: biochemical, human
Details in all cases: other: 37° C., 10 mM Bis-Tris buffer pH 5.5, 150 mM NaCl
[1] = substrate: C[C@H](NC(=O)[C@H](CO)NC(=O)[C@H](CCCNC(=N)N)NC(=O)[C@@H](NC(=O)[C@H](Cc1c[nH]cn1)NC(=O)[C@H](CCCNC(=N)N)NC(=O)[C@H](CCCNC(=N)N)NC(=O)c1ccccc1N)[C@@H](C)O)C(=O)N[C@@H](CCC(=O)O)C(=O)N[C@@H](CC(=O)O)C(=O)N[C@@H](CC(=O)O)C(=O)N[C@@H](CO)C(=O)N[C@@H](CCC(=O)O)C(=O)N[C@@H](CCCNC(=N)N)C(=O)N[C@@H](CCC(N)=O)C(=O)NCCNc1ccc([N+](=O)[O-])cc1[N+](=O)[O-]
Protocol: (§1) The human recombinant secPHEX was obtained following the procedure previously described (17, WO 00/50580). Purified secPHEX concentration was determined using the Bradford method (DC protein assay kit; Bio-Rad, Mississauga, ON, Canada). Membrane-bound recombinant human PHEX was expressed in LLC-PK1 cells (17, (WO 00/50580)) and membranes were prepared essentially as described by Guo et al. (34). Briefly, transfected cells resuspended in lysis buffer (150 mM NaCl, 20 mM Tris.HCl, pH 7.6) were disrupted by sonication. Cell debris were removed by centrifugation at 300 g for 15 min at 4 °C. Membranes were collected by centrifugation at 30,000 g for 50 min and solubilized for 2h with 1% n-dodecyl-β-D-maltoside in lysis buffer. Insoluble material was pelleted by centrifugation at 10,000 g for 15 min and protein concentrations of the supernatant determined using the Bradford method described above. PHEX amounts were evaluated by immunoblotting as described previously (17). NEP expression and purification were performed as described previously (36).
(§2) The hydrolysis of the IQFPs, at 37° C., in 10 mM Bit-Tris buffer pH 5.5 (0.35 to 1.0 ml final volume) containing 150 mM NaCl, was continuously followed measuring the fluorescence at γem=420 nm and γex=320 nm in a Hitachi F-2000™ spectrofluorometer. The cuvefte containing the buffer and the substrate was placed in a thermostatically controlled cell compartment for 5 min before the addition of the enzyme and the increase in fluorescence with time was continuously recorded for 5-10 min. The enzyme concentration for initial rate determination was chosen at a level intended to hydrolyze less than 5% of the substrate present. The slope was converted into micromoles of substrate hydrolyzed per min based on a calibration curve obtained from complete hydrolysis of each peptide. The inner-filter effect was corrected using an empirical equation as previously described (43). The kinetic parameters Km and kcat were calculated by the non-linear regression data analysis Grafit program (42). The kcat/Km values were calculated as the ratio of these two determined parameters. The apparent second order rate constant kcat/Km (*kIt/Km) was determined under pseudo first-order conditions, where [S]<<Km. These determinations were performed in two different substrate concentrations and the errors were less than 5% for any obtained value.
(§3) To determine the position of cleavage in peptides of the IQFPs combinatorial libraries, the products resulting from hydrolysis by secPHEX were submitted to N-terminal amino acid sequencing in a PPSQ-23protein sequencer (Shimadzu Tokyo, Japan). The scissile bonds in the IQFPs secPHEX substrates derived from PTHrP107-139, FGF-23and MEPE were determined by amino acid sequencing and by MALDI-TOF™ mass spectrometry (TofSpec-E™, Micromass, Manchester, U.K.) after isolation of the fragments resulting from the hydrolysis by secPHEX by analytical HPLC.
(§4) The assays were performed at 37° C., in 10 mM Bis-Tris buffer pH 5.5, containing 150 mM NaCl. Measurements were made as described under the heading “Experimental Procedures” above. Cleavage sites are indicated as arrows (↓). The standard deviations of the kinetic constants were less than 5%.
(§5) The assays were performed at 37° C., in 10 mM Bis-Tris buffer pH 5.5, containing 150 mM NaCl. Measurements were made as described under the heading “Experimental Procedures” above. Cleavage sites are indicated by arrows (↓). The standard deviations of the kinetic constants were less than 5%.
(§6) The assays were. performed at 37° C., in 10 mM Bis-Tris buffer pH 5.5, containing 150 mM NaCl. Measurements were made as described under the heading “Experimental Procedures” above. Cleavage sites are indicated by arrows (↓). The standard deviations of the kinetic constants were less than 5%.
(§7) The assays were performed at 37° C., in 10 mM Bis-Tris buffer pH 5.5, containing 150 mM NaCl. Measurements were made as described under “Experimental Procedures”. […]

[2] = substrate: CSCC[C@H](NC(=O)[C@H](CCC(=O)O)NC(=O)[C@H](CC(N)=O)NC(=O)c1ccccc1N)C(=O)N[C@@H](CC(=O)O)C(=O)N[C@@H](CO)C(=O)N[C@@H](Cc1ccccc1)C(=O)N[C@@H](CC(N)=O)C(=O)N[C@@H](CCC(N)=O)C(=O)NCCNc1ccc([N+](=O)[O-])cc1[N+](=O)[O-]
Protocol: as §1, §2, §3, §4, §5, §6, §7

[3] = substrate: CC(C)C[C@H](NC(=O)[C@H](Cc1c[nH]cn1)NC(=O)[C@H](CC(=O)O)NC(=O)c1ccccc1N)C(=O)N[C@@H](CO)C(=O)N[C@@H](CC(=O)O)C(=O)N[C@H](C(=O)N[C@@H](CO)C(=O)N[C@H](C(=O)N[C@@H](CCC(N)=O)C(=O)NCCNc1ccc([N+](=O)[O-])cc1[N+](=O)[O-])[C@@H](C)O)[C@@H](C)O
Protocol: as §1, §2, §3, §4, §5, §6, §7

[4] = substrate: CC(C)C[C@H](NC(=O)[C@H](Cc1c[nH]c2ccccc12)NC(=O)[C@H](C)NC(=O)c1ccccc1N)C(=O)N[C@@H](CC(=O)O)C(=O)N[C@@H](CO)C(=O)NCC(=O)N[C@H](C(=O)N[C@@H](CCC(N)=O)C(=O)NCCNc1ccc([N+](=O)[O-])cc1[N+](=O)[O-])C(C)C
Protocol: as §1, §2, §3, §4, §5, §6, §7

B1: human recombinant secPHEX (Homo sapiens) (protein)
chain: SLQAKQEYCLKPECIEAAAAILSKVNLSVDPCDNFFRFACDGWISNNPIPEDMPSYGVYPWLRHNVDLKLKELLEKSISRRRDTEAIQKAKILYSSCMNEKAIEKADAKPLLHILRHSPFRWPVLESNIGPEGVWSERKFSLLQTLATFRGQYSNSVFIRLYVSPDDKASNEHILKLDQATLSLAVREDYLDNSTEAKSYRDALYKFMVDTAVLLGANSSRAEHDMKSVLRLEIKIAEIMIPHENRTSEAMYNKMNISELSAMIPQFDWLGYIKKVIDTRLYPHLKDISPSENVVVRVPQYFKDLFRILGSERKKTIANYLVWRMVYSRIPNLSRRFQYRWLEFSRVIQGTTTLLPQWDKCVNFIESALPYVVGKMFVDVYFQEDKKEMMEELVEGVRWAFIDMLEKENEWMDAGTKRKAKEKARAVLAKVGYPEFIMNDTHVNEDLKAIKFSEADYFGNVLQTRKYLAQSDFFWLRKAVPKTEWFTNPTTVNAFYSASTNQIRFPAGELQKPFFWGTEYPRSLSYGAIGVIVGHEFTHGFDNNGRKYDKNGNLDPWWSTESEEKFKEKTKCMINQYSNYYWKKAGLNVKGKRTLGENIADNGGLREAFRAYRKWINDRRQGLEEPLLPGITFTNNQLFFLSYAHVRCNSYRPEAAREQVQIGAHSPPQFRVNGAISNFEEFQKAFNCPPNSTMNRGMDSCRLW
notes: pure soluble form of PHEX (secPHEX); made in house
Km [1]: 3.0 µM
kcat [1]: 0.2 s⁻¹
kcat/Km [1]: 66700 M⁻¹ s⁻¹
Km [2]: 38.0 µM
kcat [2]: 0.3 s⁻¹
kcat/Km [2]: 7900 M⁻¹ s⁻¹
Km [3]: 1.3 µM
kcat [3]: 0.1 s⁻¹
kcat/Km [3]: 77000 M⁻¹ s⁻¹
Km [4]: 1.5 µM
kcat [4]: 0.04 s⁻¹
kcat/Km [4]: 26700 M⁻¹ s⁻¹
